Series [1] concerns CC(C)(COP(=O)(O)OP(=O)(O)OC[C@H]1O[C@@H](n2cnc3c(N)ncnc32)[C@H](O)[C@@H]1OP(=O)(O)O)[C@@H](O)C(=O)NCCC(=O)NCCSC(=O)CCC(=O)O. Description: purified protein. The settings on record: acetoacetate co-substrate, pH 8.6, 37 °C, 15 mM MgCl2.
The next series has as its system CC(=O)CC(=O)O. Description: purified protein. The settings on record: 1 mM succinyl-CoA, pH 8.6, 37 °C, 15 mM MgCl2.

What is called Km is the substrate concentration at which the rate is half of its maximum. A word on the kcat: it is the number of substrate molecules converted per active site and unit of time at saturation. Turning to HsSCOT (Homo sapiens), in series [1], the Michaelis constant (Km) came to 971 µM and the kcat worked out at 190 s⁻¹. Besides, in the series with CC(=O)CC(=O)O, the Km is 765 µM and the catalytic constant (kcat) was found to be 105 s⁻¹.

(Values after PMC7402102.)
